Assay results taken from paper PMC7375240, “Covalent Inhibitors Allosterically Block the Activation of Rho Family Proteins and Suppress Cancer Cell Invasion” (Advanced Science, 2020).

How the values were obtained:
[1] = target: Rac1 (human, UniProt P63000 1-192); experiment: pull-down; (His)6-tagged GTPase held on nickel beads, 2 µg GST-tagged partner added; 20 mM HEPES pH 7.4, 150 mM NaCl, 5 mM MgCl2, 40 mM imidazole, 4 °C, 1 h; GST-tagged protein detected by anti-GST western blot; samples without effect of DC-Rhoin; conditions: both partners purified
[2] = target: T1, RalGPS1 (residues 24-289) (human, UniProt Q5JS13 24-289); experiment: as above; conditions: both partners purified
T1 construct: RalGPS1, human, residues 24-289; also called respective GEF of Ral-B (pairing inferred); source: E. coli BL21 (DE3), purified (GSTTrap, Superdex 75)
T1 sequence (Q5JS13 24-289): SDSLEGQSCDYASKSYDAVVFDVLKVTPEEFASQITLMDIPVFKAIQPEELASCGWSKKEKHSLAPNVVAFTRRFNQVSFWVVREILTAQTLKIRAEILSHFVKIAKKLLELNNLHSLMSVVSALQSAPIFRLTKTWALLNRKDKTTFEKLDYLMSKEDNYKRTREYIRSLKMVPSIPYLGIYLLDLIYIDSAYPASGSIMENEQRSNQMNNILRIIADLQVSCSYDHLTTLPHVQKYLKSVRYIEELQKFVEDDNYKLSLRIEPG

Row | Binder | binding result [1] | binding result [2]
1 | Tiam1 (residues 1033-1406) (domain or fragment, Tiam1, murine, residues 1033-1406; The text says only 'their respective GEFs'; that this construct was the GEF used with Rac1 is inferred from the list of constructs; also called respective GEF of Rac1 (pairing inferred); source: E. coli BL21 (DE3), purified (GSTTrap, Superdex 75)) RQLSDADKLRKVICELLETERTYVKDLNCLMERYLKPLQKETFLTQDELDVLFGNLTEMVEFQVEFLKTLEDGVRLVPDLEKLEKVDQFKKVLFSLGGSFLYYADRFKLYSAFCASHTKVPKVLVKAKTDTAFKAFLDAQNPRQQHSSTLESYLIKPIQRVLKYPLLLRELFALTDAESEEHYHLDVAIKTMNKVASHINEMQKIHEEFGAVFDQLIAEQTGEKKEVADLSMGDLLLHTSVIWLNPPASLGKWKKEPELAAFVFKTAVVLVYKDGSKQKKKLVGSHRLSIYEEWDPFRFRHMIPTEALQVRALPSADAEANAVCEIVHVKSESEGRPERVFHLCCSSPESRKDFLKSVHSILRDKHRRQLLKTE | binds | –
2 | Ral-B (natural protein, human, UniProt P11234 1-206, looked up, RalB, human, full length, in pET28a with a TEV site; source: E. coli BL21 (DE3), purified (HisTrap FF, Superdex 75)) MAANKSKGQSSLALHKVIMVGSGGVGKSALTLQFMYDEFVEDYEPTKADSYRKKVVLDGEEVQIDILDTAGQEDYAAIRDNYFRSGEGFLLVFSITEHESFTATAEFREQILRVKAEEDKIPLLVVGNKSDLEERRQVPVEEARSKAEEWGVQYVETSAKTRANVDKVFFDLMREIRTKKMSENKDKNGKKSSKNKKSFKERCCLL | – | binds
